From doi:10.1101/2024.04.16.588673 (bioRxiv, 2024)

T1: parathyroid hormone 1 receptor (PTH1R), C-tagged Citrine (human, UniProt Q03431 27-593)
T1 sequence: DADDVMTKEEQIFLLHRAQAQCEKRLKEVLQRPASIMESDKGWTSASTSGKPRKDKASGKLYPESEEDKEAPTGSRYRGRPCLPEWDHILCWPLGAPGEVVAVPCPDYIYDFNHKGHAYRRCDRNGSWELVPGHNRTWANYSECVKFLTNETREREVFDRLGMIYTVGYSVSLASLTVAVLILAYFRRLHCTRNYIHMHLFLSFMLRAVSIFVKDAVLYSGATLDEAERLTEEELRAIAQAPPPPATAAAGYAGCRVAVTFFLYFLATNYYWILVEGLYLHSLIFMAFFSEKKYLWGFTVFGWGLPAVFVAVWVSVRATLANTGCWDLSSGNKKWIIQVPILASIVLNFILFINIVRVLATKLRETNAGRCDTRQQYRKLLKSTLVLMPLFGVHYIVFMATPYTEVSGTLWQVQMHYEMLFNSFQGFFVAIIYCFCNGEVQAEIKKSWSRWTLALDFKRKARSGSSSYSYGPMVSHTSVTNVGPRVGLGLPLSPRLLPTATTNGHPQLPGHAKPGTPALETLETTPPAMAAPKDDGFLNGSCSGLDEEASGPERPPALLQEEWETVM


Target: T1, parathyroid hormone 1 receptor (PTH1R), …
Assay: FRET or BRET

stoichiometry N	Binder
~2 RAMP3 per PTH1R	receptor activity-modifying protein 3 (RAMP3), C-tagged Cerulean (natural protein) RAGGCNETGMLERLPLCGKAFADMMGKVDVWKWCNLSEFIVYYESFTNCTEMEANVVGCYWPNPLAQGFITGIHRQFFSNCTVDRVHLEDPPDEVLIPLIVIPVVLTVAMAGLVVWRSKRTDTLL
~1 RAMP2 per PTH1R	receptor activity-modifying protein 2 (RAMP2), C-tagged Cerulean (natural protein) QPLPTTGTPGSEGGTVKNYETAVQFCWNHYKDQMDPIEKDWCDWAMISRPYSTLRDCLEHFAELFDLGFPNPLAERIIFETHQIHFANCSLVQPTFSDPPEDVLLAMIIAPICLIPFLITLVVWRSKDSEAQA
